± gives the standard deviation of the averaged measurements.
B1: library; numbered along this chain (parent)
chain: MNIQIGELAKRTACPVVTIRFYEQEGLLPPPGRSRGNFRLYGEEHVERLQFIRHCRSLDMPLSDVRTLLSYRKRPDQDCGEVNMLLDEHIRQVESRIGALLELKHHLVELREACSGARPAQSCGILQGLSDCVCDTRGTTAHPSD

How the values were obtained:
[1] = variants of: B1; assay: sfGFP reporter fluorescence (15 h) (µM FITC); higher = higher leak; conditions: library round: Round 0; ligand: none
Method in brief: (§1)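 Values are endpoint sfGFP fluorescence given as µM FITC equivalents. Fluorescence was read at 485/528 nm on a Synergy Neo2, and FITC standard curves were prepared in 50 mM sodium borate pH 8.5. Reactions of 1 μL combined BL21 Star (DE3) PANOx-SP extract, pPbrR-sfGFP reporter, 30 μg/mL GamS and linear PbrR templates (PCR-made, Echo-normalized to 5 nM), with 1 µM lead chloride, 30 µM zinc acetate or no metal, for 15 hr at 30 °C.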

[2] = variants of: B1; assay: sfGFP reporter fluorescence (15 h) (µM FITC); higher = stronger transcriptional activation; conditions: library round: Round 0
Method in brief: as §1

E43W
sfGFP reporter fluorescence [1]: 0.061 ± 0.0013 | sfGFP reporter fluorescence ([2]; ligand: 1 µM Pb): 0.0995 ± 0.021 | sfGFP reporter fluorescence ([2]; ligand: 30 µM Zn): 1.36 ± 0.2

G6P
sfGFP reporter fluorescence [1]: 0.061 ± 0.0013 | sfGFP reporter fluorescence ([2]; ligand: 1 µM Pb): 0.0601 ± 0.0015 | sfGFP reporter fluorescence ([2]; ligand: 30 µM Zn): 0.06084 ± 0.00052

G6H
sfGFP reporter fluorescence [1]: 0.06267 ± 0.00052 | sfGFP reporter fluorescence ([2]; ligand: 1 µM Pb): 0.0603 ± 0.00078 | sfGFP reporter fluorescence ([2]; ligand: 30 µM Zn): 0.0698 ± 0.0029

G6E
sfGFP reporter fluorescence [1]: 0.0636 ± 0.0034 | sfGFP reporter fluorescence ([2]; ligand: 1 µM Pb): 0.0605 ± 0.0015 | sfGFP reporter fluorescence ([2]; ligand: 30 µM Zn): 0.0625 ± 0.0034

M60H
sfGFP reporter fluorescence [1]: 0.0623 ± 0.0015 | sfGFP reporter fluorescence ([2]; ligand: 1 µM Pb): 0.0614 ± 0.00078 | sfGFP reporter fluorescence ([2]; ligand: 30 µM Zn): 0.0638 ± 0.0015

M60E
sfGFP reporter fluorescence [1]: 0.107 ± 0.00052 | sfGFP reporter fluorescence ([2]; ligand: 1 µM Pb): 0.463 ± 0.039 | sfGFP reporter fluorescence ([2]; ligand: 30 µM Zn): 1.67 ± 0.012

M60V
sfGFP reporter fluorescence [1]: 0.0715 ± 0.0015 | sfGFP reporter fluorescence ([2]; ligand: 1 µM Pb): 0.1459 ± 0.001 | sfGFP reporter fluorescence ([2]; ligand: 30 µM Zn): 1.05 ± 0.012

P61M
sfGFP reporter fluorescence [1]: 0.0682 ± 0.001 | sfGFP reporter fluorescence ([2]; ligand: 1 µM Pb): 0.1424 ± 0.0013 | sfGFP reporter fluorescence ([2]; ligand: 30 µM Zn): 0.714 ± 0.039

P61W
sfGFP reporter fluorescence [1]: 0.061 ± 0.0039 | sfGFP reporter fluorescence ([2]; ligand: 1 µM Pb): 0.06395 ± 0.00026 | sfGFP reporter fluorescence ([2]; ligand: 30 µM Zn): 0.104 ± 0.0018

R111D
sfGFP reporter fluorescence [1]: 0.0585 ± 0.0013 | sfGFP reporter fluorescence ([2]; ligand: 1 µM Pb): 0.06707 ± 0.00052 | sfGFP reporter fluorescence ([2]; ligand: 30 µM Zn): 0.215 ± 0.0029

R111N
sfGFP reporter fluorescence [1]: 0.0583 | sfGFP reporter fluorescence ([2]; ligand: 1 µM Pb): 0.0684 ± 0.00078 | sfGFP reporter fluorescence ([2]; ligand: 30 µM Zn): 0.391 ± 0.032

C114T
sfGFP reporter fluorescence [1]: 0.0583 ± 0.0015 | sfGFP reporter fluorescence ([2]; ligand: 1 µM Pb): 0.05864 ± 0.00052 | sfGFP reporter fluorescence ([2]; ligand: 30 µM Zn): 0.0544 ± 0.0039

C114M
sfGFP reporter fluorescence [1]: 0.05937 ± 0.00052 | sfGFP reporter fluorescence ([2]; ligand: 1 µM Pb): 0.0603 ± 0.0013 | sfGFP reporter fluorescence ([2]; ligand: 30 µM Zn): 0.0616 ± 0.0015

C114F
sfGFP reporter fluorescence [1]: 0.0572 ± 0.0015 | sfGFP reporter fluorescence ([2]; ligand: 1 µM Pb): 0.0577 ± 0.00078 | sfGFP reporter fluorescence ([2]; ligand: 30 µM Zn): 0.053 ± 0.0013

C114D
sfGFP reporter fluorescence [1]: 0.0585 ± 0.00078 | sfGFP reporter fluorescence ([2]; ligand: 1 µM Pb): 0.0588 ± 0.0018 | sfGFP reporter fluorescence ([2]; ligand: 30 µM Zn): 0.0564 ± 0.0036

C114A
sfGFP reporter fluorescence [1]: 0.05607 ± 0.00052 | sfGFP reporter fluorescence ([2]; ligand: 1 µM Pb): 0.0559 ± 0.0013 | sfGFP reporter fluorescence ([2]; ligand: 30 µM Zn): 0.0542

C114Y
sfGFP reporter fluorescence [1]: 0.0585 ± 0.0018 | sfGFP reporter fluorescence ([2]; ligand: 1 µM Pb): 0.0586 | sfGFP reporter fluorescence ([2]; ligand: 30 µM Zn): 0.0544 ± 0.0013

L58S
sfGFP reporter fluorescence [1]: 0.05717 ± 0.00052 | sfGFP reporter fluorescence ([2]; ligand: 1 µM Pb): 0.0586 | sfGFP reporter fluorescence ([2]; ligand: 30 µM Zn): 0.0563 ± 0.0013

K104V L107A
sfGFP reporter fluorescence [1]: 0.166 ± 0.0088 | sfGFP reporter fluorescence ([2]; ligand: 1 µM Pb): 0.817 ± 0.042 | sfGFP reporter fluorescence ([2]; ligand: 30 µM Zn): 2.18 ± 0.12

M60L D64K K104V
sfGFP reporter fluorescence [1]: 2.02 ± 0.17 | sfGFP reporter fluorescence ([2]; ligand: 1 µM Pb): 4.2 ± 0.4 | sfGFP reporter fluorescence ([2]; ligand: 30 µM Zn): 4.63 ± 0.11

D64A L68S
sfGFP reporter fluorescence [1]: 0.0623 ± 0.0021 | sfGFP reporter fluorescence ([2]; ligand: 1 µM Pb): 0.0597 ± 0.0026 | sfGFP reporter fluorescence ([2]; ligand: 30 µM Zn): 0.0803 ± 0.0036

P143A
sfGFP reporter fluorescence [1]: 0.0696 ± 0.0015 | sfGFP reporter fluorescence ([2]; ligand: 1 µM Pb): 0.0806 ± 0.0026 | sfGFP reporter fluorescence ([2]; ligand: 30 µM Zn): 0.4 ± 0.12

P143E
sfGFP reporter fluorescence [1]: 0.0563 ± 0.00078 | sfGFP reporter fluorescence ([2]; ligand: 1 µM Pb): 0.0696 ± 0.0026 | sfGFP reporter fluorescence ([2]; ligand: 30 µM Zn): 0.635 ± 0.04

P143V
sfGFP reporter fluorescence [1]: 0.0559 ± 0.0013 | sfGFP reporter fluorescence ([2]; ligand: 1 µM Pb): 0.0726 ± 0.0026 | sfGFP reporter fluorescence ([2]; ligand: 30 µM Zn): 0.757 ± 0.14

P143T
sfGFP reporter fluorescence [1]: 0.05772 ± 0.00026 | sfGFP reporter fluorescence ([2]; ligand: 1 µM Pb): 0.0713 ± 0.0065 | sfGFP reporter fluorescence ([2]; ligand: 30 µM Zn): 0.821 ± 0.11

E109M
sfGFP reporter fluorescence [1]: 0.061 ± 0.0013 | sfGFP reporter fluorescence ([2]; ligand: 1 µM Pb): 0.0806 ± 0.0057 | sfGFP reporter fluorescence ([2]; ligand: 30 µM Zn): 0.957 ± 0.061

E109G
sfGFP reporter fluorescence [1]: 0.05644 ± 0.00052 | sfGFP reporter fluorescence ([2]; ligand: 1 µM Pb): 0.0695 ± 0.0013 | sfGFP reporter fluorescence ([2]; ligand: 30 µM Zn): 0.793 ± 0.063

D131Q
sfGFP reporter fluorescence [1]: 0.06432 ± 0.00026 | sfGFP reporter fluorescence ([2]; ligand: 1 µM Pb): 0.124 ± 0.0029 | sfGFP reporter fluorescence ([2]; ligand: 30 µM Zn): 1.26 ± 0.24

D131P
sfGFP reporter fluorescence [1]: 0.0546 ± 0.0015 | sfGFP reporter fluorescence ([2]; ligand: 1 µM Pb): 0.0619 ± 0.0021 | sfGFP reporter fluorescence ([2]; ligand: 30 µM Zn): 0.134 ± 0.015

D131T
sfGFP reporter fluorescence [1]: 0.06267 ± 0.00052 | sfGFP reporter fluorescence ([2]; ligand: 1 µM Pb): 0.0914 ± 0.012 | sfGFP reporter fluorescence ([2]; ligand: 30 µM Zn): 0.747 ± 0.23

S130A
sfGFP reporter fluorescence [1]: 0.0599 ± 0.0013 | sfGFP reporter fluorescence ([2]; ligand: 1 µM Pb): 0.0821 ± 0.001 | sfGFP reporter fluorescence ([2]; ligand: 30 µM Zn): 0.862 ± 0.14

I3H
sfGFP reporter fluorescence [1]: 0.059 ± 0.001 | sfGFP reporter fluorescence ([2]; ligand: 1 µM Pb): 0.0707 ± 0.0021 | sfGFP reporter fluorescence ([2]; ligand: 30 µM Zn): 0.356 ± 0.01

I3F
sfGFP reporter fluorescence [1]: 0.05552 ± 0.00026 | sfGFP reporter fluorescence ([2]; ligand: 1 µM Pb): 0.0643 ± 0.0029 | sfGFP reporter fluorescence ([2]; ligand: 30 µM Zn): 0.587 ± 0.019

I3S
sfGFP reporter fluorescence [1]: 0.05864 ± 0.00052 | sfGFP reporter fluorescence ([2]; ligand: 1 µM Pb): 0.0605 ± 0.0036 | sfGFP reporter fluorescence ([2]; ligand: 30 µM Zn): 0.2084 ± 0.0013

L27I
sfGFP reporter fluorescence [1]: 0.0596 ± 0.00078 | sfGFP reporter fluorescence ([2]; ligand: 1 µM Pb): 0.0803 ± 0.0015 | sfGFP reporter fluorescence ([2]; ligand: 30 µM Zn): 0.555 ± 0.033

L27M
sfGFP reporter fluorescence [1]: 0.0643 ± 0.0018 | sfGFP reporter fluorescence ([2]; ligand: 1 µM Pb): 0.0971 ± 0.0036 | sfGFP reporter fluorescence ([2]; ligand: 30 µM Zn): 0.743 ± 0.04

L27S
sfGFP reporter fluorescence [1]: 0.0623 ± 0.00052 | sfGFP reporter fluorescence ([2]; ligand: 1 µM Pb): 0.0621 ± 0.00078 | sfGFP reporter fluorescence ([2]; ligand: 30 µM Zn): 0.0647 ± 0.0029

L129H
sfGFP reporter fluorescence [1]: 0.0586 ± 0.0015 | sfGFP reporter fluorescence ([2]; ligand: 1 µM Pb): 0.0586 ± 0.0021 | sfGFP reporter fluorescence ([2]; ligand: 30 µM Zn): 0.0583 ± 0.0015

L129D
sfGFP reporter fluorescence [1]: 0.0588 ± 0.0013 | sfGFP reporter fluorescence ([2]; ligand: 1 µM Pb): 0.05992 ± 0.00026 | sfGFP reporter fluorescence ([2]; ligand: 30 µM Zn): 0.055 ± 0.001

V82W
sfGFP reporter fluorescence [1]: 0.0592 ± 0.0013 | sfGFP reporter fluorescence ([2]; ligand: 1 µM Pb): 0.05827 ± 0.00052 | sfGFP reporter fluorescence ([2]; ligand: 30 µM Zn): 0.0555 ± 0.00078

V82Q
sfGFP reporter fluorescence [1]: 0.0579 ± 0.0021 | sfGFP reporter fluorescence ([2]; ligand: 1 µM Pb): 0.05699 ± 0.00026 | sfGFP reporter fluorescence ([2]; ligand: 30 µM Zn): 0.0552 ± 0.0013

V82S
sfGFP reporter fluorescence [1]: 0.0592 ± 0.0023 | sfGFP reporter fluorescence ([2]; ligand: 1 µM Pb): 0.057 ± 0.0018 | sfGFP reporter fluorescence ([2]; ligand: 30 µM Zn): 0.05552 ± 0.00026

Y22P
sfGFP reporter fluorescence [1]: 0.0618 ± 0.0018 | sfGFP reporter fluorescence ([2]; ligand: 1 µM Pb): 0.06066 ± 0.00026 | sfGFP reporter fluorescence ([2]; ligand: 30 µM Zn): 0.0621 ± 0.0023

Y22E
sfGFP reporter fluorescence [1]: 0.06157 ± 0.00052 | sfGFP reporter fluorescence ([2]; ligand: 1 µM Pb): 0.0621 ± 0.0013 | sfGFP reporter fluorescence ([2]; ligand: 30 µM Zn): 0.06011 ± 0.00052

— the supplement of paper PMC12783771
